Earlier results as cited in article PMC5493979.

Molecular target: LRAT (UniProt O95237)
Chain of UniProt O95237 (O95237 whole entry): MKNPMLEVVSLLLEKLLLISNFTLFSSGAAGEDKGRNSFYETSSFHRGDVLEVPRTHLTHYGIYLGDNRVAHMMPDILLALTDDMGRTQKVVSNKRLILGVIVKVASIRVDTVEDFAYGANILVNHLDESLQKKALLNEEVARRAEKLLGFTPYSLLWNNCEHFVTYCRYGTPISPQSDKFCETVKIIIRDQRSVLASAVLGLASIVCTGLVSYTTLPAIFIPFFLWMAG

Ki: 200 nM
Substance: apo-CRBP1 (from UniProt P09455)
